Patent US20030195151A1

What was measured:
[1] = target: mixture of ‘TAXI’-like endoxylanase inhibitors obtained after the affinity purification step of example 3, immobilised on NHS-activated Sepharose 4 Fast Flow; test: affinity chromatography on immobilised ‘TAXI’-like endoxylanase inhibitors, activity by Xylazyme-AX method
[2] = target: endoxylanase M4 from Aspergillus niger (family 11), Megazyme (Aspergillus niger); test: cell-based or functional assay
[3] = target: endoxylanase from Bacillus subtilis (family 11), NV Puratos (Bacillus subtilis) (UniProt P18429); test: cell-based or functional assay
[4] = target: endoxylanase M1 from Trichoderma viride (family 11), Megazyme (Trichoderma viride); test: cell-based or functional assay
[5] = target: endoxylanase M6 from a rumen microorganism culture filtrate, Megazyme; test: cell-based or functional assay

Chain of endoxylanase M4 from Aspergillus niger (family 11), Megazyme (Aspergillus niger) (P55329 28-211): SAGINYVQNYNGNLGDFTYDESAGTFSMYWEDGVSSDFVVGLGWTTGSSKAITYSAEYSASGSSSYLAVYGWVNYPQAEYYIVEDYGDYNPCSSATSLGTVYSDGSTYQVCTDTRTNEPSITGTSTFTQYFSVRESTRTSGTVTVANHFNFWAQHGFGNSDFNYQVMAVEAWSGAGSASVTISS
Chain of endoxylanase of A. niger, var. awamori (Quest International enzyme preparation) (P55328 28-211): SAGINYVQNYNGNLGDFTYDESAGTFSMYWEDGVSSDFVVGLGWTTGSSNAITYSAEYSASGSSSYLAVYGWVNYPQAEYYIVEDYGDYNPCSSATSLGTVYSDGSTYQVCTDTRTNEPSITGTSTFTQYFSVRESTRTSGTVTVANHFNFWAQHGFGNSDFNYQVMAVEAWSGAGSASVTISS

endoxylanase inhibition activity of periplasmic protein fraction (Xylazyme-AX method) [2] [%] | endoxylanase inhibition activity of periplasmic protein fraction (Xylazyme-AX method) [3] [%] | maximum of inhibition of endoxylanase activity (Xylazyme-AX method) [4] [%] | maximum of inhibition of endoxylanase activity (Xylazyme-AX method) [5] [%] | maximum of inhibition of endoxylanase activity (Xylazyme-AX method) [3] [%] | Substance | other results
 |  |  |  |  | endoxylanase of A. niger, var. awamori (Quest International enzyme preparation) | endoxylanase activity retained on the affinity column [1]: 94%
99 | 88 |  |  |  | MBP (maltose binding protein)-TAXI fusion protein expressed by the pMAL-p2X-TAXI plasmid | 
 |  | > 95 | 15 | 92 | HvXI (Hordeum vulgare L. endoxylanase inhibitor) | level of inhibitor that reduces the endoxylanase activity with 50% (Xylazyme-AX method) [4]: 0.08 µg; level of inhibitor that reduces the endoxylanase activity with 50% (Xylazyme-AX method) [2]: 0.13 µg; maximum of inhibition of endoxylanase activity (Xylazyme-AX method) [2]: > 95%; level of inhibitor that reduces the endoxylanase activity with 50% (Xylazyme-AX method) [3]: 0.27 µg
 |  | > 90 | 8 | 77 | TAXI II (Triticum aestivum L. endoxylanase inhibitor II) | quantity of inhibitor that reduces the endoxylanase activity with 50% (Xylazyme-AX method) [4]: 0.07 µg; maximum of inhibition as a function of inhibitor quantity [3]: 80%; quantity of inhibitor that reduces the endoxylanase activity with 50% (Xylazyme-AX method) [3]: 0.28 µg
96 | 81 |  |  |  | recombinant TAXI protein expressed by the pHOS31-TAXI plasmid | 
